The assay deals with EBOV GP [change] (residues 1-636; strain Makona) (Zaire ebolavirus (EBOV), strain Makona). Description: negative-stain electron microscopy; purified EBOV GP ΔTM alone.

“EBOV GP [change] (residues 1-636; strain Makona) (domain or fragment)” displayed a stoichiometry N of 3.

The record behind these values is article PMC6104738.
